Laboratory results: patent US10669350B2, “Antigen-binding constructs that bind to and inhibit catalase and/or superoxide dismutase as well as pharmaceutical compositions containing them for tumor therapy” (priority 2015, dated 2020)
Entries after “also recorded” stand apart in the source; their conditions may differ.

Key:
[1] = tested on: MKN-45 gastric carcinoma cells; test: Standard preparation for autocrine ROS-controlled apoptosis induction in tumor cells (percentage of apoptotic cells); type: cell-based, human; conditions: for apoptosis induction in MKN-45 cells: increasing concentrations, 3-4 hours at 37° C., 5% CO2
Protocol: (§1) The experiments shown in FIG. 13-24 were carried out with a standard preparation for the apoptosis induction that is based on the method performed in Heinzelmann and Bauer 2010. The tumor cells used were taken from an optimally growing semi-sealed culture, centrifuged and placed in fresh medium. The test was performed in 96-well cell culture plates with 12 500 MKN-45 cells/100 μl medium or 10 000 SHEP cells/100 μl medium. MKN-45 cells grow in suspension, SHEP cells are adherent. The tests with SHEP cells were started as soon as the cells had grown on. By adding increasing concentrations of single domain VHH fragments that either inhibit catalase or SOD the protection of the tumor cells from their own ROS signaling was annulled so that based on the cell-owned extracellular superoxide anion production the NO/peroxynitrite signal path and the HOCl path (with MKN-45 cells) or in case of the SHEP cells only the NO/peroxynitrite path could start when the cells were incubated at 37° C. The analysis of the signal paths was carried out by the application of inhibitors of the NADPH oxidase (AEBSF), the HOCl scavenger taurine, the peroxynitrite scavenger FeTPPS and the singlet oxygen scavenger histidine. In some experiments for comparison instead of the single domain VHH fragments either recombinant Fab fragments or monoclonal antibodies were applied. This is indicated in the respective illustrations.
Double preparations were examined at the times shown in the text by means of phase contrast reverse microscopy for the percentage of apoptotic cells. Here, the classical apoptosis criteria described and documented in Heinzelmann and Bauer 2010 such as condensation of the nucleus, fragmentation of the nucleus, and membrane blebbing were used. Per single preparation at least 250 randomly selected cells were examined for the presence of apoptosis features. […]

human catalase [2] = target: T1, human catalase (Homo sapiens, UniProt P04040); test: ELISA selection of clones binding to human catalase
T1 sequence (P04040 2-527 limits assumed): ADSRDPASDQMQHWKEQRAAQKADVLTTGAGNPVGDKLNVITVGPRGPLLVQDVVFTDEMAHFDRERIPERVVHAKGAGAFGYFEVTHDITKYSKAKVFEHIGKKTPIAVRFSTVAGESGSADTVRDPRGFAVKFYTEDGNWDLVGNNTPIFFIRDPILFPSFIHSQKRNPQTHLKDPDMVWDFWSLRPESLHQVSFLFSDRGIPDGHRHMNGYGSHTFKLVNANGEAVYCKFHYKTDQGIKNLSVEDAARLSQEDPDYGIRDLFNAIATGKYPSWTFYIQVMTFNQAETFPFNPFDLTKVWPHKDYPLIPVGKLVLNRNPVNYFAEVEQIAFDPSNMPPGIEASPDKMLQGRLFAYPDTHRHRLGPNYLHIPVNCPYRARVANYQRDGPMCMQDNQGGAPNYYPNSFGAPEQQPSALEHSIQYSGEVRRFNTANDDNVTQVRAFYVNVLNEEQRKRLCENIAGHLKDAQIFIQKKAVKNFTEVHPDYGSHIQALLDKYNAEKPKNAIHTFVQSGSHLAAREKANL
Description: […] […] In a second run, by employing the cell culture system described by Heinzelmann and Bauer (Heinzelmann S. and Bauer G. Multiple protective functions of catalase against intercellular apoptosis-inducing ROS signaling of human tumor cells, Biol. Chem. 391, 675-693, 2010) it was checked which one of the single domain VHH fragments binding to catalase actually results in an inhibition of the catalase, what is expressed as ROS-dependent apoptosis induction in the cells. […] The clones underlying the single domain VHH fragments were sequenced by standard methods and the amino acid sequence was determined therefrom.

human catalase [3] = target: T1, human catalase; test: Check for inhibition (neutralization) of catalase, expressed as ROS-dependent apoptosis induction in cell culture system; type: cell-based; parameters: catalase-neutralizing single domain VHH fragments only neutralize the membranous catalase of tumor cells; endogenous in cells; host or cells: MKN-45 human gastric carcinoma cells
Description: For the determination of the neutralizing effect of single domain VHH or Fab fragments directed against catalase a test system is suitable that is based on the apoptosis-inducing effect of H2O2 and the degradation of H2O2 by catalase. Here, as the cellular test system both non-malignant and malignant cells can be employed. It is only required that apoptosis induction is quantitatively determinable in the selected cell system. As the H2O2 source, H2O2-generating glucose oxidase (GOX) is preferred over the direct addition of H2O2, because the continuous production of H2O2 by GOX (by using glucose from the culture medium of the cells) allows a very precise adjustment of the H2O2 flux. The test system is based on the inhibition of the apoptosis induction by GOX mediated by catalase and the restoration of the apoptosis induction by catalase-neutralizing single domain VHH or Fab fragments. […] For that, in general depending on the cell system, GOX concentrations between 0.1 and 40 mU/ml are required. In a second step, the concentration of human catalase is determined that is just sufficient to abolish the effect achieved by GOX. […] After successful determination of the suitable concentrations of GOX and catalase then the actual experiment for the determination of the catalase-neutralizing effect of single domain VHH or Fab fragments can be performed. For that, the selected catalase concentration is pre-incubated for 20 minutes with selected concentrations of the single domain VHH or Fab fragments to be tested. Subsequently, said mixture together with the concentration of GOX determined to be suitable is added to the cells and apoptosis induction is measured. A reliable neutralizing effect of the single domain VHH or Fab fragments is obtained if the inhibiting effect of the catalase on the GOX-mediated apoptosis induction was abolished by at least 90%, i.e. if 90% of the apoptosis induction value is achieved that is shown in control preparations without addition of catalase. If there is achieved an abolition of the inhibiting effect of catalase of at least 50% there may be assumed a significant inhibiting effect of the tested single domain VHH or Fab fragment. […]
[…] In a second run, by employing the cell culture system described by Heinzelmann and Bauer (Heinzelmann S. and Bauer G. Multiple protective functions of catalase against intercellular apoptosis-inducing ROS signaling of human tumor cells, Biol. Chem. 391, 675-693, 2010) it was checked which one of the single domain VHH fragments binding to catalase actually results in an inhibition of the catalase, what is expressed as ROS-dependent apoptosis induction in the cells. […] The clones underlying the single domain VHH fragments were sequenced by standard methods and the amino acid sequence was determined therefrom.

[4] = tested on: human neuroblastoma line SHEP; test: Standard preparation for apoptosis induction in SHEP cells (percentage of apoptotic cells); type: cell-based
Protocol: as §1
Double preparations were examined at the times shown in the text by means of phase contrast reverse microscopy for the percentage of apoptotic cells. Here, the classical apoptosis criteria described and documented in Heinzelmann and Bauer 2010 such as condensation of the nucleus, fragmentation of the nucleus, and membrane blebbing were used. Per single preparation at least 250 randomly selected cells were examined for the presence of apoptosis features.
10 000 cells of the human neuroblastoma line SHEP per 100 μl medium were mixed with the given concentrations of the catalase-neutralizing single domain VHH fragment aCATcb0972, the SOD-neutralizing single domain VHH fragment aSOD0989, the SOD-binding but not neutralizing single domain VHH fragment aSODcb991 and the hybrid molecule aCATaSOD and incubated for 5 hours at 37° C., 5% CO2, before percentages of apoptotic cells were determined.
10 000 cells of the human neuroblastoma line SHEP per 100 μl medium were mixed with the given concentrations of the SOD-neutralizing single domain VHH fragment aSOD0989. Parallel preparations received 20 μM or 100 μM of the NO donor sodium nitroprusside or were incubated without a further additive. After 5 hours at 37° C., 5% CO2 the percentages of apoptotic cells were determined.

[5] = Table 2, FIG. 20 experiment, 3.5 hours

CC(=O)O[C@H]1C(=O)[C@@]2(C)[C@H]([C@H](OC(=O)c3ccccc3)[C@]3(O)C[C@H](OC(=O)[C@H](O)[C@@H](NC(=O)c4ccccc4)c4ccccc4)C(C)=C1C3(C)C)[C@]1(OC(C)=O)CO[C@@H]1C[C@@H]2O [taxol, reference compound]
displacement of the required taxol concentration by neutralizing single domain VHH fragments ([1]; 4 hours): less than a thousandth | optimum effect concentration of taxol alone ([1]; 4 hours): 1100 ng/mL | apoptosis induction in MKN-45 cells [1]: induces apoptosis in the tumor cells in a concentration-dependent manner

B1: aCATcb0975: single domain VHH fragment binding to human catalase, but not neutralizing; SEQ ID NO: 13 (protein)
VHH: MAQVQLVESGGGLVQPGGSLRLSCAASASIFSIYVMAWYRQAPGKQRELVATVTSGGATNYANSVKGRFTISRDNAKNTMDLQMNSLKPEDTAVYYCNAEDYYDYGLSRSKIYWGQGTQVTVSSKKKHHHHHH
modifications: catalase binding
binding to human catalase (human catalase [2]): bind to human catalase | neutralization (inhibition) of human catalase (human catalase [3]): do not neutralize it

B2: aCATaSOD: bispecific hybrid single domain VHH fragment of cb 0972 and cb 0989 connected via a linker; SEQ ID NO: 17 (protein)
VHH: MAQVQLVESGGGLVQAGGSLRLSCAASERTFNTYGMGWFRQAPGKEREFVATISWSGDSTYYADSVKGRFTISRDNAKNTMYLQMNSLKPEDTAVYYCNANSEYGDSYWGQGTQVTVSSGGGGSGGGGSGGGGSAQVQLVESGGGLVQSGGSLTLSCTASGFTISNYPMTWVRQAPGKGLEWVSRINSGGDRTLYADSVKGRFTVSRDNARNTMYLQMNNLKPEDTGLYFCADSGAGWRYWGQGTQVTVSSKKKHHHHHH
modifications: bispecific
efficacy compared with single domain VHH fragments directed against one target structure ([4]; 5 hours): much more effective | apoptosis induction in SHEP cells ([4]; 5 hours at 37° C., 5% CO2): can induce concentration-dependent apoptosis | apoptosis induction after siRNA-mediated knockdown of FAS receptor or caspase-8 ([1]; 24 nM siRNA, four hours): does not require the FAS receptor and its downstream caspase-8; also recorded: prevents the supra-optimum drop of the apoptosis induction curve | apoptosis induction after siRNA-mediated knockdown of NOX1, iNOS2 or caspase-9 ([1]; 24 nM siRNA, four hours): completely prevents the apoptosis induction | apoptosis induction in the presence of peroxynitrite scavenger FeTPPS ([1]; 25 μM FeTPPS): complete inhibition by FeTPPS | apoptosis induction in the presence of NOX1 inhibitor AEBSF ([1]; 100 μM AEBSF): completely prevented | apoptosis induction in the presence of singlet oxygen scavenger histidine ([1]; 2 mM histidine): attenuating effect on the right-side drop of the optimum curve | apoptosis induction in the presence of HOCl scavenger taurine ([1]; 50 mM taurine): no inhibition by taurine | optimum conc. [1, 5]: 2.4e-07 ng/mL | apoptosis induction in MKN-45 cells [1]: gradually superior over the reverse arrangement | ROS signaling path induced ([1]; inhibitor analysis): exclusively the NO/peroxynitrite path

B3: monoclonal aCAT: neutralizing conventional monoclonal antibody against catalase (Sigma) as a control (protein)
VHH: MAQVQLVESGGGLVQAGGSLRLSCAASERTFNTYGMGWFRQAPGKEREFVATISWSGDSTYYADSVKGRFTISRDNAKNTMYLQMNSLKPEDTAVYYCNANSEYGDSYWGQGTQVTVSSKKKHHHHHH
optimum effect concentration (text, FIG. 20) ([1]; 3.5 hours): 111 ng/mL | relation to opt. conc. single domain Fab ([1]; Table 1, concentration basis, versus the corresponding single domain VHH): 277 500 | optimum conc. ([1]; Table 1, concentration necessary for optimum apoptosis induction, taken from FIGS. 13A, 13B, 15A, 15B, 20): 111 ng/mL | relation (molar basis) ([1]; Table 1, versus the corresponding single domain VHH): 46 250 | optimum conc. [1, 5]: 111 ng/mL | relation to opt. conc. hybrid Fab ([1]; Table 2, concentration basis, versus hybrid aCATaSOD): 4.6 × 10^8 | relation (molar basis) ([1]; Table 2, versus hybrid aCATaSOD): 1.54 × 10^8

B4: aCATcb0973: single domain VHH fragment binding to human catalase, but not neutralizing; SEQ ID NO: 11 (protein)
VHH: MAEVQLVESGGGLVQPGGSLRLSCAVSGFIFNTYSMRWGRQAPGKGLEWVSSISTGGYSTYADSVKGRFTISRDNAKNLVYLQMNSLKPEDTAVYYCGWGAFVRGERPQGQGTQVTVSSKKKHHHHHH
modifications: catalase binding
binding to human catalase (human catalase [2]): bind to human catalase | neutralization (inhibition) of human catalase (human catalase [3]): do not neutralize it

B5: aCATcb0974: single domain VHH fragment that binds to and neutralizes human catalase; SEQ ID NO: 12 (protein)
VHH: MAQVQLVESGGGLVQPGGSLRLSCAASGSIFSIASMGWYRQAPGKQRDLVATITSDGSTKYADSVKGRFTISRDNAKNTMYLQMNSVKPEDAAVYYCNADADDLEPGSYDYDYWGQGTQVTVSSKKKHHHHHH
modifications: catalase binding
binding to human catalase (human catalase [2]): bind to human catalase | neutralization (inhibition) of human catalase (human catalase [3]): neutralize it
